Assay results reported in patent US9029105B2, “Microorganism producing L-methionine precursor and method of producing L-methionine and organic acid from the L-methionine precursor” (CJ Cheiljedang Corporation, priority 2006, dated 2015).

What was measured:
Format in all cases: biochemical
[1] = HPLC of final methionine and succinic acid after one-hour reaction with O-succinylhomoserine; conditions: from O-succinylhomoserine
Procedure: (§1) First, O-succinylhomoserine (Sigma, USA) was dissolved in 0.1 M potassium phosphate buffer (pH 7.5) with the concentration of 3 mM. Pyridoxal 5′-phosphate (Sigma, USA) used as a coenzyme was added into the reaction solution with the final concentration of 10 μM. Methylmercaptan (Methylmercaptan, Tokyo Kasei Organic Chemicals, Japan) used as another substrate was added into the reaction solution with the final concentration of 2 mM. 1 ml of the reaction solution was placed in 37° C., to which 10 μL of each enzyme solution (protein conc.: 5 mg/ml) was added. 100 μL of the reaction solution was collected every 5-10 minutes and added into 900 μL of 4 mg/ml DTNB (Sigma, USA) solution. OD415 was measured to confirm the on-going of the reaction.
Upon completion of one-hour reaction, HPLC was performed to confirm the final productions of methionine and succinic acid.

[2] = HPLC of final methionine and acetic acid after one-hour reaction with O-acetylhomoserine; conditions: from O-acetylhomoserine
Procedure: as §1
(§2) Experiment was performed with O-acetylhomoserine by the same manner as described in Example <3-20>. O-acetylhomoserine was purified from the supernatant of fermented solution. The same reaction solutions and enzyme solutions as used for the experiment with O-succinylhomoserine were used for the reaction. […] Upon completion of one-hour reaction, HPLC was performed to confirm the final productions of methionine and […].

[3] = Feed-back inhibition of converting enzyme by methionine, OAHS as substrate; conditions: presence of methionine
Procedure: as §2
Feed-back inhibition in the presence or absence of methionine was identified by the same manner as described in Examples <3-20> and <3-21>. The reaction solutions were prepared by the same manner above and the same reaction was performed by adding or not adding 5 g/L of methionine in the each reaction solution. The reaction speed in the reaction solution without methionine was regarded as 100%, based on which the remaining activity in the presence of methionine was calculated as %.

[4] = Conversion reaction of O-acetylhomoserine with methylmercaptan by enzyme solutions (DTNB, OD415); conditions: OAHS as a substrate
Procedure: as §1
DTNB was reacted with SH group of methylmercaptan remaining in the reaction solution and thus synthesized a yellow substance. Thus, whether the reaction was going on or not was checked by observing the disappearance of yellow color of the reaction solution resulted from the conversion reaction of methylmercaptan into methionine.
Experiment was performed with O-acetylhomoserine by the same manner as described in Example <3-20>. O-acetylhomoserine was purified from the supernatant of fermented solution. The same reaction solutions and enzyme solutions as used for the experiment with O-succinylhomoserine were used for the reaction. […]

Row | Molecule | amount of Methionine [1] [g/L] | amount of Succinic acid [1] [g/L] | amount of Acetic acid [2] [g/L] | amount of Methionine [2] [g/L] | inhibition of enzyme activity by methionine, in words [3] | enzyme activity with O-acetylhomoserine (FIG. 6), in words [4]
1 | Escherichia Coli K12 MetB: cystathionine gamma synthase derived from E. coli, cell extract enzyme solution (protein, UniProt P00935 1-386, looked up) Cystathionine gamma-synthase: MTRKQATIAVRSGLNDDEQYGCVVPPIHLSSTYNFTGFNEPRAHDYSRRGNPTRDVVQRALAELEGGAGAVLTNTGMSAIHLVTTVFLKPGDLLVAPHDCYGGSYRLFDSLAKRGCYRVLFVDQGDEQALRAALAEKPKLVLVESPSNPLLRVVDIAKICHLAREVGAVSVVDNTFLSPALQNPLALGADLVLHSCTKYLNGHSDVVAGVVIAKDPDVVTELAWWANNIGVTGGAFDSYLLLRGLRTLVPRMELAQRNAQAIVKYLQTQPLVKKLYHPSLPENQGHEIAARQQKGFGAMLSFELDGDEQTLRRFLGGLSLFTLAESLGGVESLISHAATMTHAGMAPEARAAAGISETLLRISTGIEDGEDLIADLENGFRAANKG | 0.14 | 0.1 | – | – | – | –
2 | Leptospira meyeri MetY: O-acetylhomoserine sulfhydrylase derived from Leptospira meyeri (protein, UniProt P94890 1-442, looked up) O-acetyl-L-homoserine …: MVGPSGESMPRNFKPETIALHGGQEPDPTTTSRAVPLYQTTSYVFKDTDHAARLFGLQEFGNIYTRLMNPTTDVLEKRVAALEGGVAALATASGQSAEMLALLNIVEAGQEIVASSSLYGGTYNLLHYTFPKLGIKVHFVDQSDPENFRKASNDKTRAFYAETLGNPKLDTLDIAAVSKVAKEVGVPLVIDNTMPSPYLVNPLKHGADIVVHSLTKFLGGHGTSIGGIIIDGGSFNWGNGKFKNFTEPDPSYHGLKFWEVFGKFEPFGGVNIAFILKARVQGLRDLGPAISPFNAWQILQGVETLPLRMERHSGNALKVAEFLQKHPKIEWVNYPGLSTDKNYATAKKYHERGLFGAIVGFEIKGGVEKAKKFIDGLELFSLLANIGDAKSLAIHPASTTHQQLTGPEQISAGVTPGFVRLSVGLENIDDILVDLEEALKNI | – | – | 0.05 | 0.15 | inhibited by methionine | high enzyme activities
3 | Pseudomonas aurogenosa MetZ: O-succinylhomoserine sulfhydrylase derived from Pseudomonas aeruginosa, cell extract enzyme solution (protein, UniProt P55218 1-403, looked up, cell extract, O-succinylhomoserine sulfhydrylase derived from Pseudomonas aeruginosa, cell extract enzyme solution) O-succinylhomoserine …: MTQDWDAGRLDSDLEGAAFDTLAVRAGQRRTPEGEHGEALFTTSSYVFRTAADAAARFAGEVPGNVYSRYTNPTVRTFEERIAALEGAEQAVATASGMSAILALVMSLCSSGDHVLVSRSVFGSTISLFDKYFKRFGIQVDYPPLSDLAAWEAACKPNTKLFFVESPSNPLAELVDIAALAEIAHAKGALLAVDNCFCTPALQQPLKLGADVVIHSATKYIDGQGRGMGGVVAGRGEQMKEVVGFLRTAGPTLSPFNAWLFLKGLETLRIRMQAHSASALALAEWLERQPGIERVYYAGLPSHPQHELARRQQSGFGAVVSFDVKGGRDAAWRFIDATRMVSITTNLGDTKTTIAHPATTSHGRLSPEDRARAGIGDSLIRVAVGLEDLDDLKADMARGLAAL | 0.22 | 0.17 | – | – | – | –
